The values below come from patent US20130274692A1, “SUBCONJUCTIVAL IMPLANT FOR POSTERIOR SEGMENT DRUG DELIVERY” (priority 2010, published 2013).

The subject of series [1] is laser photocoagulation treatment-induced Grade IV choroidal neovascularization (CNV) lesions. The settings on record: intravitreal injection, all doses tested; cited from earlier work.
The conditions of series [2]: human eye (Lucentis package insert); listed as ranibizumab; cited from earlier work.
For series [3] the following is noted: cited from earlier work.
The nature of series [4]: Solubility of triamcinolone acetonide. It counts as physicochemical. The settings on record: saline or isotonic; 37 C in 0.2 M potassium chloride. As to the method:
Consider a device with 10 uL reservoir volume loaded with 0.4 mg using a commercial drug product (40 mg/mL triamcinolone acetonide). […] The target release rate is 1 ug/day based upon published clinical data. As an example, consider the 0.2 media grade stainless steel characterized in Example 8 with P/F=0.12 and a thickness of 0.5 mm. […] This could be achieved with a cylindrical device having an inner diameter of 2 mm and a length of porous tubing of 1 mm. Alternatively, the end of the device could be a porous cup with height of 0.8 mm (0.5 mm thick porous face plus 0.3 mm length) of porous tubing.

≈ marks a conversion by molar mass, not a printed value. Like-named read-outs stand apart in the source and are kept apart here.

Take ranibizumab [Lucentis]: in series [1], the “development of Grade IV CNV lesions” value was “completely inhibited”. The “half-life in the vitreous” value is roughly 220 h in series [2]; “approximately 3 days” in series [3] (rabbit and monkey, listed as ranibizumab). Also, the “Half-life” value in series [3] (monkey model (Gaudreault et al.), parameter of Simulations 1-5) was 63.1 h.
The term solubility denotes the dissolved amount per volume that the medium holds. `CC1(C)O[C@@H]2C[C@H]3[C@@H]4CCC5=CC(=O)C=C[C@]5(C)[C@@]4(F)[C@@H](O)C[C@]3(C)[C@]2(C(=O)CO)O1` [triamcinolone acetonide]: in series [4], the solubility amounted to 19 µg/mL (≈ 43.7 µM).
